The supplement of paper PMC10724198
± gives the standard deviation of the averaged measurements.

System: Saccharomyces cerevisiae
Experiment: protein stability index of tFT-peptide fusion (C-terminal peptide) (PSI (0-1 scale)); higher = more stable (slower turnover)
Conditions: genetic background: wild type; temperature: 30 C
Method: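 Multiplexed protein stability (MPS) profiling in S. cerevisiae. Random 12-aa peptides (tFT-X12 library) are fused to the C-terminus of a sfGFP-mCherry tandem fluorescent timer, after mCherry and a GGGS linker. Cells are FACS-sorted into 8 mCherry/sfGFP bins and deep-sequenced. The protein stability index (PSI) is the read-weighted bin average, scaled from 0 (unstable) to 1 (stable). Only peptides with >10 reads are reported; cells were grown at 30 °C in SC-His with glucose.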
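Further: PSI is a weighted mean of sequencing reads over stability bins, variants kept only with over 10 reads, mCherry proximal and sfGFP distal, peptide attached via GGGS linker.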

Sequence | protein stability index
GVEDRFGGSCGL | 0.639 ± 0.049
GVERSLFGRIGV | 0.735 ± 0.024
GVESQIHISTYE | 0.686 ± 0.049
GVEVVVWRSGGI | 0.688 ± 0.019
GVFAGGLWCVGF | 0.657 ± 0.087
GVFGGAGCGVVL | 0.724 ± 0.022
GVFGLMVGWGWG | 0.671 ± 0.053
GVFWRGCGGCGG | 0.685 ± 0.041
GVGDELIRAEQT | 0.723 ± 0.018
GVGGFPSRLVGG | 0.69 ± 0.043
GVGGRAGWGGLL | 0.7167 ± 0.002
GVGGRGVGAGGG | 0.662 ± 0.055
GVGLGGVGFRGG | 0.694 ± 0.098
GVGSWSCGGSVH | 0.6634 ± 0.0034
GVIKLTQEKAST | 0.679 ± 0.017
GVLCGQGRAGAA | 0.7 ± 0.014
GVLCGVGLGFGV | 0.702 ± 0.044
GVLDTRWIIIST | 0.53 ± 0.029
GVLLCVDGSGGE | 0.762 ± 0.054
GVMASLVRMSQG | 0.679 ± 0.11
GVPAPVFCRSIF | 0.618 ± 0.015
GVPPFSPPPPPH | 0.683 ± 0.017
GVQCLVFIGRPK | 0.69 ± 0.093
GVQEGGGVARGG | 0.639 ± 0.018
GVRGALGCAGRV | 0.679 ± 0.02
GVRNGFMSVSLY | 0.651 ± 0.01

Sequence | protein stability index
GVSGGDGSKCKE | 0.682 ± 0.016
GVSLFFITQFET | 0.712 ± 0.012
GVSPSCILPLIL | 0.653 ± 0.011
GVSPSPPSPPPH | 0.741 ± 0.062
GVSRGTGIGEGE | 0.6774 ± 0.0039
GVVCWRFLLADV | 0.596 ± 0.028
GVVGCSCLGCGF | 0.717 ± 0.054
GVVGVGRCWGLV | 0.628 ± 0.08
GVWCLDVYGRRC | 0.6837 ± 0.0022
GVYWGEIDDVER | 0.717 ± 0.015
GWAFDVAGQSAR | 0.683 ± 0.0097
GWAGGEGWRGEG | 0.6964 ± 0.0062
GWALGRGRRVSG | 0.691 ± 0.033
GWDFRERLGGSG | 0.71 ± 0.028
GWGGCDSVVVSG | 0.697 ± 0.033
GWGGGCGCGRGI | 0.687 ± 0.058
GWGVGGKVGQAG | 0.6814 ± 0.0047
GWLAERGPLEGG | 0.728 ± 0.016
GWLVVLGLVQDL | 0.559 ± 0.039
GWMTGMEERGGG | 0.674 ± 0.053
GWNCTAFRTLHI | 0.662 ± 0.061
GWNGAGSGCVRA | 0.659 ± 0.068
GWREPQHGARGP | 0.719 ± 0.022
GWRGGGSRELKW | 0.743 ± 0.031
GWWCAGVREWTR | 0.8 ± 0.013
GYCGRGCWGVGC | 0.7093 ± 0.0056

Sequence | protein stability index
GYLPPPDSLSSS | 0.672 ± 0.023
GYLVECKRLCVW | 0.588 ± 0.024
GYNARHILGRVG | 0.699 ± 0.011
GYNCKWGRTNVT | 0.6782 ± 0.0024
GYPASGVLIVFF | 0.512 ± 0.026
GYPLRSHCLIVD | 0.68 ± 0.0081
GYSPMGFSFFPV | 0.673 ± 0.047
HAPLIPRFALIP | 0.677 ± 0.013
HAPSRAPFPTAS | 0.71 ± 0.067
HCFCFSVSSFFG | 0.667 ± 0.026
HCFFSVPFRSGF | 0.691 ± 0.045
HCLLLSLVFFFW | 0.727 ± 0.03
HCSYSSSRPSPR | 0.543 ± 0.043
HDWPQTTRADQS | 0.677 ± 0.036
HFGRYLSSVFGV | 0.679 ± 0.05
HFGSSLPPFCCI | 0.76 ± 0.021
HFKHLALVQQFP | 0.69 ± 0.048
HFPPPPRPSAPP | 0.681 ± 0.036
HFSPLILSSYTV | 0.693 ± 0.037
HFVDAIPEGIHA | 0.583 ± 0.023
HGCQGKVRQSHR | 0.651 ± 0.039
HGCVWCSGLFGV | 0.739 ± 0.029
HGHLGKFLGARE | 0.689 ± 0.022
HGISLVWEVGEG | 0.6439 ± 0.0035
HGLPSFANPGNF | 0.716 ± 0.0095
HGNWGSSPVVSG | 0.632 ± 0.055

Sequence | protein stability index
HGPFLSNLLPDK | 0.799 ± 0.085
HGVVGVFGLVSG | 0.664 ± 0.0075
HIGSYTFILPSS | 0.759 ± 0.064
HIHHVPGPHITA | 0.706 ± 0.0088
HIHQDPGVIRWG | 0.7216 ± 0.0015
HIHRGDRVIGDV | 0.682 ± 0.01
HINVAVAKYSRQ | 0.697 ± 0.047
HIPPFSPCPPTG | 0.707 ± 0.02
HITMERTERTKY | 0.7145 ± 0.0057
HKEHLDNPRLRP | 0.714 ± 0.012
HKKAWVVTVGIS | 0.602 ± 0.042
HKRCCIPTNDSQ | 0.6991 ± 0.0063
HKTNTSRKSRRT | 0.737 ± 0.12
HLCLACYRSVDM | 0.688 ± 0.011
HLFYASCNSSAS | 0.67112 ± 0.00053
HLLCPLSPYICH | 0.681 ± 0.02
HLLNPVRSPLPA | 0.63 ± 0.063
HLPLPPRLLTHV | 0.654 ± 0.042
HLPPPPTPFPLT | 0.757 ± 0.16
HMCPWVWPVRDQ | 0.691 ± 0.024
HMGTNSSTGDRN | 0.636 ± 0.032
HNIRIDTSEKNR | 0.6001 ± 0.0024
HNKTTNGNSHKN | 0.715 ± 0.073
HPATPPPLLPPL | 0.74479 ± 0.0007
HPFLPLFYHFPF | 0.733 ± 0.037
HPPASPPHSPRS | 0.63 ± 0.07

Sequence | protein stability index
HPPKPHHPSNPC | 0.691 ± 0.034
HPPLLPPPTPTS | 0.752 ± 0.062
HPPLPPPLPGSP | 0.761 ± 0.049
HPPPDPPFLAST | 0.611 ± 0.042
HPPPVLSPPLSP | 0.7107 ± 0.0033
HPPSPPPPPSRL | 0.713 ± 0.071
HPPTLPPLPIPP | 0.625 ± 0.0091
HPRPPAASSRTR | 0.707 ± 0.044
HPRWTPPTQSAS | 0.716 ± 0.049
HPSSLRLSSSAF | 0.697 ± 0.014
HPVLGPNRVINI | 0.71 ± 0.087
HPVPFSVASHLN | 0.645 ± 0.03
HPWAFRIRTPRL | 0.752 ± 0.09
HPYVTSHGRPLR | 0.677 ± 0.024
HQPSPFPKNSPT | 0.717 ± 0.06
HRARWLSLGVTW | 0.655 ± 0.035
HRCNCVFPENSL | 0.693 ± 0.038
HRFEEGAPAPTE | 0.704 ± 0.013
HRGIPMRDLAPN | 0.675 ± 0.02
HRKPHRSKTPIH | 0.693 ± 0.032
HRLSFPTQNIRG | 0.677 ± 0.019
HRPPSVNRVSLM | 0.692 ± 0.012
HRRCPILFKMAT | 0.674 ± 0.12
HRSIDEGCSCCD | 0.627 ± 0.093
HSCFPPLSTSVL | 0.817 ± 0.12
HSGDLYFWGCRD | 0.706 ± 0.061

Sequence | protein stability index
HSLRRLSLYVSL | 0.612 ± 0.086
HSPHSQYLLRID | 0.72 ± 0.033
HSPPSPHFPHHH | 0.6609 ± 0.0043
HSPVPPLPALPL | 0.73 ± 0.024
HSQAPPPHPHAP | 0.719 ± 0.024
HSRALLSVLPPH | 0.7023 ± 0.0057
HSRPHTAPPYRA | 0.643 ± 0.023
HSSDTAFSPLPP | 0.6449 ± 0.0024
HSWFSWSVVSEL | 0.7308 ± 0.0018
HSYLSPPLLASP | 0.715 ± 0.069
HTEELKKSIKTQ | 0.637 ± 0.082
HTEVDIVKRDRR | 0.6896 ± 0.00098
HTGPTRPGHPLP | 0.703 ± 0.03
HTRLCFSPPRGI | 0.686 ± 0.02
HTWARGLGVIRP | 0.768 ± 0.012
HTYKADSLYTAR | 0.748 ± 0.015
HVRLSCTRGMVI | 0.695 ± 0.015
HVVVSPRSNRIL | 0.7429 ± 0.0055
HWPSPLSPAVPG | 0.804 ± 0.084
HWRWGGRSGGDR | 0.707 ± 0.013
HYPLPPLLPPAP | 0.674 ± 0.014
HYRSNFGRDSNL | 0.762 ± 0.082
IAAPANQGHSKP | 0.694 ± 0.042
IACDPNNRKDFT | 0.627 ± 0.008
IACSVWYCCMVI | 0.526 ± 0.014
